Where no end group is shown, it is not given here. fluorescein = fluorescein moiety attached to the N-terminus of the peptide (N-terminal fluorescein label)
Legend:
ExoI Glu150Ala variant = target: T1, ExoI Glu150Ala variant (Escherichia coli, UniProt P04995 1-475); assay: fluorescence anisotropy equilibrium binding (Kd,app), ExoI variant titrated into fluorescein-labeled peptide
T1 construct: also called E150A; Glu150 variant
T1 sequence: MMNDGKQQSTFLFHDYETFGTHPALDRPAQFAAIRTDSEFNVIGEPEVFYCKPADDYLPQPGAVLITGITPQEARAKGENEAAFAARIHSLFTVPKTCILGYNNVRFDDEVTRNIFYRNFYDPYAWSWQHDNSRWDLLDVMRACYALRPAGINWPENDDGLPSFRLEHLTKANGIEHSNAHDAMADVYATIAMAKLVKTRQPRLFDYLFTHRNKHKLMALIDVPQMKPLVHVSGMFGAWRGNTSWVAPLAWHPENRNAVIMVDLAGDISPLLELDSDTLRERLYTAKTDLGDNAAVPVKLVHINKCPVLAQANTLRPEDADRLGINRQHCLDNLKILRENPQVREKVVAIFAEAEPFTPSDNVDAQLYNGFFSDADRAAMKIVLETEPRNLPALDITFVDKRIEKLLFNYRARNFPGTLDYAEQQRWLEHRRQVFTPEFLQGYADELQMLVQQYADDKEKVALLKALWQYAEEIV

ExoI Arg338Ala variant = target: T2, ExoI Arg338Ala variant (Escherichia coli, UniProt P04995 1-475); assay: as above
T2 construct: basic ridge residue; also called R338A; Arg338 variant
T2 sequence: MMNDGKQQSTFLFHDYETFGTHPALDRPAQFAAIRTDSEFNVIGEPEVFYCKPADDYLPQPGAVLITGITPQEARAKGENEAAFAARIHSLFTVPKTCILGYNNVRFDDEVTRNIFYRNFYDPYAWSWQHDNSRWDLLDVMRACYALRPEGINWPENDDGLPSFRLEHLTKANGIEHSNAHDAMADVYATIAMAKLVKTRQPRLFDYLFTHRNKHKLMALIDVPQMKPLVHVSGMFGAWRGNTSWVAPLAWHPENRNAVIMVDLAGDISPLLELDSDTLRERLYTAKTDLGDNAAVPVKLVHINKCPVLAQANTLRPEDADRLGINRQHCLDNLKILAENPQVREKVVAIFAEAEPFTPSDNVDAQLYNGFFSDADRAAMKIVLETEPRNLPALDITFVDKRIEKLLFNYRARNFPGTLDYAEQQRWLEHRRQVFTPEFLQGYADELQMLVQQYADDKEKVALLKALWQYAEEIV

ExoI Lys227Ala variant = target: T3, ExoI Lys227Ala variant (Escherichia coli, UniProt P04995 1-475); assay: as above
T3 construct: basic ridge residue; also called K227A; Lys227 variant
T3 sequence: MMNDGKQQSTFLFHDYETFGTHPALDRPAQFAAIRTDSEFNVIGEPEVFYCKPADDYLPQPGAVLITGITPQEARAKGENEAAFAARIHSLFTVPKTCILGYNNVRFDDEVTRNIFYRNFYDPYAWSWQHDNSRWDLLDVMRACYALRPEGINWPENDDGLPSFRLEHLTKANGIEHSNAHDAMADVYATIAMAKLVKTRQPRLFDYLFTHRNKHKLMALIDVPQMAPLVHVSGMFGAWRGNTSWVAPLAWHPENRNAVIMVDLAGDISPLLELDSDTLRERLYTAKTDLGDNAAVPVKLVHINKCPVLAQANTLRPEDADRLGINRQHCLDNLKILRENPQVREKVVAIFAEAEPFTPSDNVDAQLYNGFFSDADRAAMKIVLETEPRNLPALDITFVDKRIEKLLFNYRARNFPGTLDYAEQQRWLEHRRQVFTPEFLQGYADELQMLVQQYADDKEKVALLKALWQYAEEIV

ExoI Gln311Ala variant = target: T4, ExoI Gln311Ala variant (Escherichia coli, UniProt P04995 1-475); assay: as above
T4 construct: also called Q311A; Gln311 variant
T4 sequence: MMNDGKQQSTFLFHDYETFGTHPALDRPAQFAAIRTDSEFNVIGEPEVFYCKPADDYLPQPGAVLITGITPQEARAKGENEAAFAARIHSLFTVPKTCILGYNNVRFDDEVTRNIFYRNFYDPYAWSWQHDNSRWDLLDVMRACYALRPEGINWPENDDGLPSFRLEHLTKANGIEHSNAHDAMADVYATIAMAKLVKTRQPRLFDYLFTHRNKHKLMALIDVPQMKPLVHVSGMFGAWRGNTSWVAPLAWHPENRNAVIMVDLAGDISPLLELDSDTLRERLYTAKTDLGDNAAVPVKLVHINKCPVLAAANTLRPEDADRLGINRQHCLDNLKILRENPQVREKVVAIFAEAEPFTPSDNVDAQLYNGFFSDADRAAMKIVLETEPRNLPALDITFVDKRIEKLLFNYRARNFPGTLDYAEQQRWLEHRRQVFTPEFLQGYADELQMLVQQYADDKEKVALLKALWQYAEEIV

E. coli Exonuclease I = target: T5, E. coli Exonuclease I (Escherichia coli, UniProt P04995 1-475); assay: fluorescence anisotropy equilibrium binding (Kd,app), ExoI titrated into fluorescein-labeled peptide
T5 construct: also called ExoI; Exol
T5 sequence: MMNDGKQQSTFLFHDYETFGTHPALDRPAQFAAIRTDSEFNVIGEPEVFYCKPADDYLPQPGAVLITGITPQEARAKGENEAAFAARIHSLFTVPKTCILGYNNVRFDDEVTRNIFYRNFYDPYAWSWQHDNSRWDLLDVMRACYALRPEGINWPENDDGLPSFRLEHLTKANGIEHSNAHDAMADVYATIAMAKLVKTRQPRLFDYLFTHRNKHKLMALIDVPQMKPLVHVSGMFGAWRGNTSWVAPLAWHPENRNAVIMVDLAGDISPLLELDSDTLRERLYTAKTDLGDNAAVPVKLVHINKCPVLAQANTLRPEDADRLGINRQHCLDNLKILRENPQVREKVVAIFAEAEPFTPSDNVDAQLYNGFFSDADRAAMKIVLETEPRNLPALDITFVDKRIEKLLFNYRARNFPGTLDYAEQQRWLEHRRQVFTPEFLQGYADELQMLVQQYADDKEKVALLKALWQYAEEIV

B1: fluorescein-labeled SSB C-terminal peptide (fluorescein-WMDFDDDIPF) (peptide)
peptide: fluorescein-WMDFDDDIPF
notes: also called F-SSB-Ct; F-WT
Kd (ExoI Glu150Ala variant): 72 nM
Kd (ExoI Arg338Ala variant): 398 nM
Kd (ExoI Lys227Ala variant): ~1000 nM
Kd (ExoI Gln311Ala variant): 304 nM
Kd (E. coli Exonuclease I): 136 nM

Reference: patent US8415393B2, “Anti-bacterial drug targeting of genome maintenance interfaces” (Wisconsin Alumni Research Foundation, priority 2007, dated 2013)
